Here are results for 14 molecules from patent US20160250341A1 (Molecular Partners, published 2016).

Experiment in all cases: SPR (ProteOn), DARPin captured by anti-RGS-His antibody, albumin injected
One assay concerns the target T1, human serum albumin (human, UniProt P02768 25-609).
T1 construct: also called HSA
The protocol: (§1) DARPins with binding specificity for xSA were immobilized in a flow cell via their His-tag to coated α-RGS-His antibody (Qiagen, cat. no. 34650), and the interaction of human, cynomolgus monkey (cyno), mouse, rat, rabbit and dog serum albumin with the immobilized DARPins were analyzed.
(§2) SPR was measured using a ProteOn instrument (BioRad) and measurement was performed according standard procedures known to the person skilled in the art. The running buffer was PBS, pH 7.4, containing 0.01% Tween 20®. Anti-RGS-His antibody was covalently immobilized on a GLC chip (BioRad) to a level of about 2000 resonance units (RU). Immobilization of DARPins on the antibody coated chip was then performed by injecting 150 μl of 1 μM DARPin solution in 300 s (flow rate=30 μl/min). The interaction with serum albumin of the different species was then measured by injecting in 60 sec a volume of 100 μl running buffer (PBS containing 0.01% Tween®) containing a distinct serum albumin at a concentration of 400, 200, 100, 50 nM (on-rate measurement), followed by a running buffer flow for 10 to 30 minutes (flow rate=100 μl/min) (off-rate measurement). The signals (i.e. resonance unit (RU) values) of an uncoated reference cell and a reference injection (i.e. injection of running buffer only) were subtracted from the RU traces obtained after injection of the serum albumins (double-referencing). From the SRP traces obtained from the on-rate and off-rate measurements the on- and off-rate of the corresponding DARPin serum albumin interaction can be determined.
(§3) While human and cynomolgus monkey serum albumin are bound by all DARPins analyzed, rabbit, mouse, rat and dog serum albumin is only bound by a subset of these DARPins.

Assay [1] has as its target T2, cynomolgus monkey serum albumin (cynomolgus monkey (macaca fascicularis), UniProt A2V9Z4 25-608).
T2 construct: also called CSA
The protocol: as §1, §2, §3

For the next assay, the target named is dog serum albumin (dog, UniProt P49822 25-608). The protocol:
as §1, §2, §3

A further assay has as its target T3, mouse serum albumin (mouse, UniProt P07724 25-608).
T3 construct: also called MSA
The protocol:
as §1, §2, §3

The target in another assay is rat serum albumin (rat, UniProt P02770 25-608). The protocol: as §1, §2, §3
Chain of rat serum albumin (P02770 25-608 limits assumed): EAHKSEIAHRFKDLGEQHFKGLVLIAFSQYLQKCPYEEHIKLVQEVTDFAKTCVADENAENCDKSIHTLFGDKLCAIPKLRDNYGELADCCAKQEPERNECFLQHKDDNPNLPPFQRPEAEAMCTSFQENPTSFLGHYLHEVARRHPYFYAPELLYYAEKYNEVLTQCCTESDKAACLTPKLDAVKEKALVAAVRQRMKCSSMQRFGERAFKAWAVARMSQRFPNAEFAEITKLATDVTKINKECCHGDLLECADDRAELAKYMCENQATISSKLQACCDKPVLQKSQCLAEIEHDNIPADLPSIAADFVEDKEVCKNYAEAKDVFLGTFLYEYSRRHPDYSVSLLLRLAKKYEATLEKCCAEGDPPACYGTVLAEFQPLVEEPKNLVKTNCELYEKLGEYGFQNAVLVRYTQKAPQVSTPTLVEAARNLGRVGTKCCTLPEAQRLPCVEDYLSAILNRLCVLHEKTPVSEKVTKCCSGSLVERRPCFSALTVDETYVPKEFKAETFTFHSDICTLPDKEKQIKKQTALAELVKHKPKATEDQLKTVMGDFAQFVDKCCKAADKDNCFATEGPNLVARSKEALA
In a further assay the target is rabbit serum albumin (rabbit, UniProt P49065 25-608). The protocol:
as §1, §2, §3

T1 sequence (P02768 25-609 limits assumed): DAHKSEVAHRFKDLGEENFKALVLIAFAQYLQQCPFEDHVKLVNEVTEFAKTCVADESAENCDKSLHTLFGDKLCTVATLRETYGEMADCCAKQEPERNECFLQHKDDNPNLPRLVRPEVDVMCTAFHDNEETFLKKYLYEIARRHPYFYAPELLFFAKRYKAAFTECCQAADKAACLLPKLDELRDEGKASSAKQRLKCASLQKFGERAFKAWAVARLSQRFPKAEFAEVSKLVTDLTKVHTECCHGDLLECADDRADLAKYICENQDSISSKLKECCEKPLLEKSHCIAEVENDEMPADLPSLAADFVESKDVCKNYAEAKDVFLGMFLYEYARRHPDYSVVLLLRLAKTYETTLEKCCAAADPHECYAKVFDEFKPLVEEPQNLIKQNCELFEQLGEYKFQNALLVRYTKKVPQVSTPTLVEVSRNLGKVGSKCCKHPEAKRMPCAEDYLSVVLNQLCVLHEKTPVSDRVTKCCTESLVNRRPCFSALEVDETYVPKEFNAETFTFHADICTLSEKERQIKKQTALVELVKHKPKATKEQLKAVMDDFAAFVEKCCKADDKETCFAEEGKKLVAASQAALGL
Chain of dog serum albumin (P49822 25-608 limits assumed): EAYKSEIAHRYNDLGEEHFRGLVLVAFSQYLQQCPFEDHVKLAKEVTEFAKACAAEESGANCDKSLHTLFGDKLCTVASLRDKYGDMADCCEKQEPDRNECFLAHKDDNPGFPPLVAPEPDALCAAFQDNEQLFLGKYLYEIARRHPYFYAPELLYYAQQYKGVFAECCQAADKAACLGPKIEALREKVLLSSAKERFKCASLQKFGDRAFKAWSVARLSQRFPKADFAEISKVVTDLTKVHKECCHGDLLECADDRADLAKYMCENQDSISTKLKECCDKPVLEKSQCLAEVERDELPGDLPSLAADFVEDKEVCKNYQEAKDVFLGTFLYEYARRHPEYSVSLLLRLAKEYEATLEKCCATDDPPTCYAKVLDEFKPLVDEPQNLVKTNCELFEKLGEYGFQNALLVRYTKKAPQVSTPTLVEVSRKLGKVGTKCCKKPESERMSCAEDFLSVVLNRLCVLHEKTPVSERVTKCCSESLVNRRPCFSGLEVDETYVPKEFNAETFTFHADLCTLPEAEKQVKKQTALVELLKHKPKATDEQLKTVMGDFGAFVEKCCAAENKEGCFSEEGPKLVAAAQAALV
Chain of rabbit serum albumin (P49065 25-608 limits assumed): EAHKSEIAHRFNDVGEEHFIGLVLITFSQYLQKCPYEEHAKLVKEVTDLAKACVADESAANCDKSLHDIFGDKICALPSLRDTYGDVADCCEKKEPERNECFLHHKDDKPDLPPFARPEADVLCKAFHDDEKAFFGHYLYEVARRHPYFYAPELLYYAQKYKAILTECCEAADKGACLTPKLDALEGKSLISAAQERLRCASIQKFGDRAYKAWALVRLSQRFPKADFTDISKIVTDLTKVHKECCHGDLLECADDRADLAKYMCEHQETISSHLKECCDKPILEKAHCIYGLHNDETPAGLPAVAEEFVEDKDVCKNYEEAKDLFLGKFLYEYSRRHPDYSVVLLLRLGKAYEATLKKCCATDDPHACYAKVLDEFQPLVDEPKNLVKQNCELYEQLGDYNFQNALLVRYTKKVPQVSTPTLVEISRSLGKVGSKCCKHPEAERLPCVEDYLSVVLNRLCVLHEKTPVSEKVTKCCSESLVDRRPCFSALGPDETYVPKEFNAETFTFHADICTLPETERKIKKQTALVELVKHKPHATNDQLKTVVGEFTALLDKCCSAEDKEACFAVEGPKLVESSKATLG
T2 sequence (A2V9Z4 25-608 limits assumed): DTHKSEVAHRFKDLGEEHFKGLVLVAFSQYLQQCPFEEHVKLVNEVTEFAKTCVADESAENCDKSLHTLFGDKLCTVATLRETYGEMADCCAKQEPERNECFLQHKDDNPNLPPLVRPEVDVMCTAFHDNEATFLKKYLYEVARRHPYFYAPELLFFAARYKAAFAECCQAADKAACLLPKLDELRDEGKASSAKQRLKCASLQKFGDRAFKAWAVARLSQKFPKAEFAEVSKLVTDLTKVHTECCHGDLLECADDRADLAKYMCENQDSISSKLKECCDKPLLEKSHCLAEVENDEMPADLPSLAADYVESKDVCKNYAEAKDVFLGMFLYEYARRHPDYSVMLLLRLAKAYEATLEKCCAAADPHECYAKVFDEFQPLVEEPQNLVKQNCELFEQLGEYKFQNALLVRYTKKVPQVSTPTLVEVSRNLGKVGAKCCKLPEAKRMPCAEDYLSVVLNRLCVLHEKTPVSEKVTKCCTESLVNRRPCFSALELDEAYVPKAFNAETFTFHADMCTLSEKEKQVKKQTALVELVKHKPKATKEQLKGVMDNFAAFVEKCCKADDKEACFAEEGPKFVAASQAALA

B1: DARPin #29 (designed binder)
chain: MRGSHHHHHHGSDLDKKLLEAARAGQDDEVRILMANGADVNAKDERGTTPLHLAAVYGHLEIVEVLLKAGADVNAKNETGYTPLHLADSSGHLEIVEVLLKHGADVNAQDKSGKTPADLAADAGHEDIAEVLQKLN
On to B1, for which the Kd was 15 nM with human serum albumin, 7 nM in assay [1] and 17 nM in the assay with rabbit serum albumin. Besides, the binding result with dog serum albumin, with mouse serum albumin and with rat serum albumin was “no binding (tested: up to 400 nM)” throughout.

B2: DARPin #27 (designed binder)
chain: MRGSHHHHHHGSDLDKKLLEAARAGQDDEVRILMANGADVNAKDERGTTPLHLAAVYGHLEIVEVLLKAGADVNAKNETGYTPLHLADSSGHLEIVEVLLKAGADVNAQDKSGKTPADLAADAGHEDIAEVLQKLN
B2: the values for the Kd (with human serum albumin; in assay [1]; with rabbit serum albumin) were 11 nM, 6 nM and 19 nM, respectively. Further, the binding result with dog serum albumin, in the assay with mouse serum albumin and with rat serum albumin was “no binding (tested: up to 400 nM)” each time.

B3: DARPin #30 (designed binder)
chain: MRGSHHHHHHGSDLDKKLLEAARAGQDDEVRILMANGADVNAKDERGTTPLHLAAVYGHLEIVEVLLKAGADVNAKNETGYTPLHLADSSGHLEIVEVLLKASADVNAQDKSGKTPADLAADAGHEDIAEVLQKLN
On to B3, for which the figures for the Kd (in the assay with human serum albumin; in assay [1]; in the assay with rabbit serum albumin) were 7 nM, 4 nM and 8 nM, respectively. In addition, the binding result with dog serum albumin, with mouse serum albumin and with rat serum albumin was “no binding (tested: up to 400 nM)” throughout.

B4: DARPin #28 (designed binder)
chain: MRGSHHHHHHGSDLDKKLLEAARAGQDDEVRILMANGADVNAKDERGTTPLHLAAVYGHLEIVEVLLKAGADVNAKNETGYTPLHLADSSGHLEIVEVLLKHSADVNAQDKSGKTPADLAADAGHEDIAEVLQKLN
On to B4, for which the Kd with human serum albumin came out at 6 nM; in assay [1], 3 nM; with rabbit serum albumin it was 9 nM. Moreover, the binding result with dog serum albumin, in the assay with mouse serum albumin and with rat serum albumin was “no binding (tested: up to 400 nM)” in each case.

B5: DARPin #20 (designed binder)
chain: MRGSHHHHHHGSDLDKKLLEAARAGQDDEVRILMANGADVNAKDYFSHTPLHLAARNGHLKIVEVLLKAGADVNAKDFAGKTPLHLAANDGHLEIVEVLLKHGADVNAQDIFGKTPADIAADAGHEDIAEVLQKLN
Consider B5, for which the Kd with human serum albumin came out at 27 nM; in assay [1], 110 nM; with dog serum albumin, 185 nM; with mouse serum albumin, 124 nM; in the assay with rat serum albumin, 242 nM. The binding result in the assay with rabbit serum albumin is given as “no binding (tested: up to 400 nM)”.

B6: DARPin #43 (designed binder)
chain: MRGSHHHHHHGSDLGKKLLEAARAGQDDEVRILLKAGADVNAKDYFSHTPLHLAARNGHLKIVEVLLKAGADVNAKDFAGKTPLHLAANDGHLEIVEVLLKHGADVNAQDIFGKTPADIAADAGHEDIAEVLQKLN
In the assay with human serum albumin, B6 displayed a Kd of 30 nM.

B7: DARPin #47 (designed binder)
chain: MRGSHHHHHHGSDLDKKLLEAARAGQDDEVRILLKAGADVNAKDYFSHTPLHLAARNGHLKIVEVLLKAGADVNAKDFAGKTPLHLAANDGHLEIVEVLLKAGADVNAQDIFGKTPADIAADAGHEDIAEVLQKLN
In the assay with human serum albumin, B7 showed a Kd of 96 nM.

B8: DARPin #22 (designed binder)
chain: MRGSHHHHHHGSDLGKKLLEAARAGQDDEVRILMANGADVNAKDYFSHTPLHLAARNGHLEIVEVLLKAGADVNAKDFAGKTPLHLAANDGHLEIVEVLLKHGADVNAQDIFGKTPADIAADAGHEDIAEVLQKLN
Turning to B8, the Kd with human serum albumin is 13 nM; in assay [1], 74 nM; in the assay with dog serum albumin it was 81 nM; with mouse serum albumin, 68 nM; with rat serum albumin it was 109 nM. The binding result with rabbit serum albumin is recorded as “no binding (tested: up to 400 nM)”.

B9: DARPin #19 (designed binder)
chain: MRGSHHHHHHGSDLGKKLLEAARAGQDDEVRILMANGADVNAKDYFSHTPLHLAARNGHLKIVEVLLKAGADVNAKDFAGKTPLHLAANDGHLEIVEVLLKHGADVNAQDIFGKTPADIAADAGHEDIAEVLQKLN
On to B9, for which the Kd stood at 14 nM in the assay with human serum albumin; 63 nM in assay [1]; 77 nM with dog serum albumin; 56 nM with mouse serum albumin; 91 nM with rat serum albumin. Moreover, in the assay with rabbit serum albumin, the binding result is “no binding (tested: up to 400 nM)”.

B10: DARPin #45 (designed binder)
chain: MRGSHHHHHHGSDLGKKLLEAARAGQDDEVRILLKAGADVNAKDYFSHTPLHLAARNGHLKIVEVLLKAGADVNAKDFAGKTPLHLAANDGHLEIVEVLLKAGADVNAQDIFGKTPADIAADAGHEDIAEVLQKLN
On to B10, for which, in the assay with human serum albumin, the affinity, expressed as Kd, was 35 nM.

B11: DARPin #48 (designed binder)
chain: MRGSHHHHHHGSDLDKKLLEAARAGQDDEVRELLKAGADVNAKDYFSHTPLHLAARNGHLKIVEVLLKAGADVNAKDFAGKTPLHLAANDGHLEIVEVLLKAGADVNAQDIFGKTPADIAADAGHEDIAEVLQKLN
On to B11, for which the Kd with human serum albumin worked out at 68 nM.

B12: DARPin #44 (designed binder)
chain: MRGSHHHHHHGSDLGKKLLEAARAGQDDEVRELLKAGADVNAKDYFSHTPLHLAARNGHLKIVEVLLKAGADVNAKDFAGKTPLHLAANDGHLEIVEVLLKHGADVNAQDIFGKTPADIAADAGHEDIAEVLQKLN
As to B12, binding with human serum albumin was characterised by a dissociation constant (Kd) of 39 nM.

B13: DARPin #21 (designed binder)
chain: MRGSHHHHHHGSDLDKKLLEAARAGQDDEVRILMANGADVNAKDYFSHTPLHLAARNGHLEIVEVLLKAGADVNAKDFAGKTPLHLAANDGHLEIVEVLLKHGADVNAQDIFGKTPADIAADAGHEDIAEVLQKLN
For B13, the Kd with human serum albumin is 26 nM; in assay [1] it was 110 nM; with dog serum albumin, 180 nM; in the assay with mouse serum albumin it was 142 nM; in the assay with rat serum albumin, 266 nM. Also, the binding result with rabbit serum albumin is “no binding (tested: up to 400 nM)”.

B14: DARPin #46 (designed binder)
chain: MRGSHHHHHHGSDLGKKLLEAARAGQDDEVRELLKAGADVNAKDYFSHTPLHLAARNGHLKIVEVLLKAGADVNAKDFAGKTPLHLAANDGHLEIVEVLLKAGADVNAQDIFGKTPADIAADAGHEDIAEVLQKLN
For B14, the Kd with human serum albumin is 43 nM.
